Test results as given in article PMC4077652, “An Unstable Th Epitope of P. falciparum Fosters Central Memory T Cells and Anti-CS Antibody Responses” (PLoS ONE, 2014).
Where no end group is shown, it is not given here.

B1: biotin-labeled QNT-5 332-345 peptide (peptide)
peptide: QNSLSTEWSPCSVT
modifications: not fully specified (N-terminus)
B2: biotin-labeled QNT-Y peptide (QNT-5 analogue L335Y) (peptide)
peptide: QNSYSTEWSPCSVT
modifications: not fully specified (N-terminus)

What was measured:
[1] = target: soluble recombinant HLA-DR4 (HLA-DRβ1*04:01) (human); assay: dissociation kinetics (LB3.1 capture, europium-streptavidin time-resolved fluorescence)
[2] = target: soluble recombinant HLA-DR4 (HLA-DRβ1*04:01) (human); assay: ELISA
[3] = target: soluble recombinant HLA-DR4 (HLA-DRβ1*04:01) (human); assay: ELISA; apparent Kd; direct binding of biotin-labeled peptide to DR4 as in the DR-ELISA (72 h), binding reactions set up with 1 µM HLA-DM

Row | Binder | half-life [1] | half-life with HLA-DM [1] | Kd [2] | Kd [3]
1 | B1 | 5.08 h | 1.75 h | 504 nM | 714 nM
2 | B2 | 138 h | 43.1 h | 25.5 nM | 35.7 nM
